Assay [1] concerns the target PrP rigid loop peptide … (DSE3) (human).
Assay [2] has as its target T1, human Fas receptor (FasR) on the surface of HUVEC cells (human, UniProt P25445 26-335).
T1 construct: whole, on cells; also called hTNFRSM6; hTNFR6
T1 sequence (looked up): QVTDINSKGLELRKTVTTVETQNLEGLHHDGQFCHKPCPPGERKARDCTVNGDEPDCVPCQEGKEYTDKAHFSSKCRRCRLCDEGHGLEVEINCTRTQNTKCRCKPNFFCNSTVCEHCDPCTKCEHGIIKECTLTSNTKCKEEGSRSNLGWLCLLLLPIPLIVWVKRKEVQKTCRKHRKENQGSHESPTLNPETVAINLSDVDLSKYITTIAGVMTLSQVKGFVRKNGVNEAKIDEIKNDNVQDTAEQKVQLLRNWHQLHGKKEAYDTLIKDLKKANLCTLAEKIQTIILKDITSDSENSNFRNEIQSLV
In words: flow cytometry on mitomycin C-treated senescent HUVEC cells, antibody at 40 µg/ml. For orientation: A flow cytometer gives signals particle by particle.

B1: antibody c-120 (misfolded PrP rigid loop antibody) (antibody)
heavy: QSVEESGGHLVTPGTPLTLTCTVSGIDLSTYAMGWVRQAPGKGLEWIGVITKSGNTYYASWAKGRFAISKTSTTVDLKITSPTTEDTATYFCGRYGIGVSYYDIWGPGTLVTVSSGQPKAPSVFPLAPCCGDTPSSTVTLGCLVKGYLPEPVTVTWNSGTLTNGVRTFPSVRQSSGLYSLSSVVSVTSSSQPVTCNVAHPATNTKVDKTVAPSTCSKPTCPPPELLGGPSVFIFPPKPKDTLMISRTPEVTCVVVDVSQDDPEVQFTWYINNEQVRTARPPLREQQFNSTIRVVSTLPIAHQDWLRGKEFKCKVHNKALPAPIEKTISKARGQPLEPKVYTMGPPREELSSRSVSLTCMINGFYPSDISVEWEKNGKAEDNYKTTPAVLDSDGSYFLYSKLSVPTSEWQRGDVFTCSVMHEALHNHYTQKSISRSPGK
light: AQVLTQTPSPVSAAVGGTVTINCQSSQSLYNKNWLSWYQKKPGQPPKLLIYKASTLESGVSSRFKGSGSGTQFTLTISGVQCDDAATYYCQGEFSCSSADCTAFGGGTEVVVKGDPVAPTVLIFPPAADQVATGTVTIVCVANKYFPDVTVTWEVDGTTQTTGIENSKTPQNSADCTYNLSSTLTLTSTQYNSHKEYTCKVTQGTTSVVQSFNRGDC
In general, Kd refers to the equilibrium constant for the complex coming apart. High values mean a looser complex, low ones a tighter complex. In turn, B1 showed a Kd in assay [1] of 0.1 nM.

B2: antibody AMF-3a-118 (misfolded FasR antibody) (antibody, V domains shown)
VH: QSVEESGGRLVTPGTPLTLTCKASGFSLSDSRVSWVRQAPGKGLEWIGIVGIGWNIYHANWAKGRFTISKTSSTTVDLKITSPTVEDTATYFCARGLGGGTVIWGPGTLVTVSL
VL: AQVLTQTPASVSAAVGGTVTISCQSSESVYKNNYLSWFQQKPGQPPKLLIYEASKLASGVSTRFKGSGSGTQFTLTISGVQCDDAATYYCLGEFSCYSGDCGTFGGGTAVVVKG
With B2, the binding result in assay [2] is recorded as “binds”.

The values are drawn from patent US20160115237A1 (UNIVERSITY OF BRITISH COLUMBIA, published 2016).
